Experimental data from patent publication US20240108738A1 (Bicycle, published 2024).
Numbered stars: 1 amine (or outer) side, 2 acyl side, 3 side chain; on linkers, the order of the positions; unused ones are H or OH. Bridge positions count the residues as written; N and C are the ends. Square brackets hold non-standard residues; d marks the D form. Ends that are not written are not given here. * marks the point of attachment. TATA = O=C(CC[*:1])N1CN(C(=O)CC[*:2])CN(C(=O)CC[*:3])C1; Trp(5-F) = N[C@@H](Cc1c[nH]c2ccc(F)cc12)C(=O)O; Trp(6-F) = N[C@@H](Cc1c[nH]c2cc(F)ccc12)C(=O)O; Trp(6-Me) = Cc1ccc2c(C[C@H](N)C(=O)O)c[nH]c2c1; Trp(7-Me) = Cc1cccc2c(C[C@H](N)C(=O)O)c[nH]c12; Trp(2-Me) = Cc1[nH]c2ccccc2c1C[C@H](N)C(=O)O; Ala(2-furyl) = N[C@@H](Cc1ccco1)C(=O)O; Nva(3-Et) = CCC(CC)[C@H](N)C(=O)O; aIle = CC[C@@H](C)[C@H](N)C(=O)O; Cba = N[C@@H](CC1CCC1)C(=O)O; Pip = O=C(O)[C@@H]1CCCCN1; Nle = CCCC[C@H](N)C(=O)O; Pent4ynoyl = C#CCCC(=O)*; Nva = CCC[C@H](N)C(=O)O; Dap = NC[C@H](N)C(=O)O; Aib = CC(C)(N)C(=O)O; GABA = NCCCC(=O)O

B1: BCY19707 (peptide)
peptide: ACNLQAPCMLTGK[Nva(3-Et)]CA-NH2
modifications: linker 2-8-15 via TATA; N-terminus assumed
SMILES: CCC(CC)[C@@H]1NC(=O)[C@H](CCCCN)NC(=O)CNC(=O)[C@H]([C@@H](C)O)NC(=O)[C@H](CC(C)C)NC(=O)[C@H](CCSC)NC(=O)[C@@H]2CSCCC(=O)N3CN(CN(C3)C(=O)CCSC[C@@H](C(=O)N[C@@H](C)C(N)=O)NC1=O)C(=O)CCSC[C@H](NC(=O)[C@H](C)N)C(=O)N[C@@H](CC(N)=O)C(=O)N[C@@H](CC(C)C)C(=O)N[C@@H](CCC(N)=O)C(=O)N[C@@H](C)C(=O)N1CCC[C@H]1C(=O)N2
notes: scaffold TATA
B2: BCY19697 (peptide)
peptide: [Dap]CNLQAPCMLTGKVCA-NH2
modifications: linker 2-8-15 via TATA; N-terminus assumed
SMILES: CSCC[C@@H]1NC(=O)[C@@H]2CSCCC(=O)N3CN(CN(C3)C(=O)CCSC[C@H](NC(=O)[C@@H](N)CN)C(=O)N[C@@H](CC(N)=O)C(=O)N[C@@H](CC(C)C)C(=O)N[C@@H](CCC(N)=O)C(=O)N[C@@H](C)C(=O)N3CCC[C@H]3C(=O)N2)C(=O)CCSC[C@@H](C(=O)N[C@@H](C)C(N)=O)NC(=O)[C@H](C(C)C)NC(=O)[C@H](CCCCN)NC(=O)CNC(=O)[C@H]([C@@H](C)O)NC(=O)[C@H](CC(C)C)NC1=O
notes: scaffold TATA
B3: BCY19723 (peptide)
peptide: ACDLTTHNCQ[Trp(7-Me)]GICA-NH2
modifications: linker 2-9-14 via TATA; N-terminus assumed
SMILES: CC[C@H](C)[C@@H]1NC(=O)CNC(=O)[C@H](Cc2c[nH]c3c(C)cccc23)NC(=O)[C@H](CCC(N)=O)NC(=O)[C@@H]2CSCCC(=O)N3CN(CN(C3)C(=O)CCSC[C@@H](C(=O)N[C@@H](C)C(N)=O)NC1=O)C(=O)CCSC[C@H](NC(=O)[C@H](C)N)C(=O)N[C@@H](CC(=O)O)C(=O)N[C@@H](CC(C)C)C(=O)N[C@@H]([C@@H](C)O)C(=O)N[C@@H]([C@@H](C)O)C(=O)N[C@@H](Cc1c[nH]cn1)C(=O)N[C@@H](CC(N)=O)C(=O)N2
notes: scaffold TATA
B4: BCY19721 (peptide)
peptide: ACDLTTHNCQ[Trp(2-Me)]GICA-NH2
modifications: linker 2-9-14 via TATA
notes: scaffold TATA
B5: BCY17224 (peptide)
peptide: Ac-CY[Cba]PDYLC[dA]DEYCK(Pent4ynoyl)-NH2
modifications: linker 1-8-13 via TATA
SMILES: C#CCCC(=O)NCCCC[C@H](NC(=O)[C@@H]1CSCCC(=O)N2CN3CN(C2)C(=O)CCSC[C@H](NC(=O)[C@H](CC(C)C)NC(=O)[C@H](Cc2ccc(O)cc2)NC(=O)[C@H](CC(=O)O)NC(=O)[C@@H]2CCCN2C(=O)[C@H](CC2CCC2)NC(=O)[C@H](Cc2ccc(O)cc2)NC(=O)[C@@H](NC(C)=O)CSCCC3=O)C(=O)N[C@H](C)C(=O)N[C@@H](CC(=O)O)C(=O)N[C@@H](CCC(=O)O)C(=O)N[C@@H](Cc2ccc(O)cc2)C(=O)N1)C(N)=O
notes: scaffold TATA
B6: BCY19699 (peptide)
peptide: [GABA]CNLQAPCMLTGKVCA-NH2
modifications: linker 2-8-15 via TATA
notes: scaffold TATA
B7: BCY19734 (peptide)
peptide: ACDLTTHNCQWG[Nle]CA-NH2
modifications: linker 2-9-14 via TATA; N-terminus assumed
SMILES: CCCC[C@@H]1NC(=O)CNC(=O)[C@H](Cc2c[nH]c3ccccc23)NC(=O)[C@H](CCC(N)=O)NC(=O)[C@@H]2CSCCC(=O)N3CN(CN(C3)C(=O)CCSC[C@@H](C(=O)N[C@@H](C)C(N)=O)NC1=O)C(=O)CCSC[C@H](NC(=O)[C@H](C)N)C(=O)N[C@@H](CC(=O)O)C(=O)N[C@@H](CC(C)C)C(=O)N[C@@H]([C@@H](C)O)C(=O)N[C@@H]([C@@H](C)O)C(=O)N[C@@H](Cc1c[nH]cn1)C(=O)N[C@@H](CC(N)=O)C(=O)N2
notes: scaffold TATA
B8: BCY19732 (peptide)
peptide: ACDLTT[Ala(2-furyl)]NCQWGICA-NH2
modifications: linker 2-9-14 via TATA; N-terminus assumed
SMILES: CC[C@H](C)[C@@H]1NC(=O)CNC(=O)[C@H](Cc2c[nH]c3ccccc23)NC(=O)[C@H](CCC(N)=O)NC(=O)[C@@H]2CSCCC(=O)N3CN(CN(C3)C(=O)CCSC[C@@H](C(=O)N[C@@H](C)C(N)=O)NC1=O)C(=O)CCSC[C@H](NC(=O)[C@H](C)N)C(=O)N[C@@H](CC(=O)O)C(=O)N[C@@H](CC(C)C)C(=O)N[C@@H]([C@@H](C)O)C(=O)N[C@@H]([C@@H](C)O)C(=O)N[C@@H](Cc1ccco1)C(=O)N[C@@H](CC(N)=O)C(=O)N2
notes: scaffold TATA
B9: BCY19717 (peptide)
peptide: ACDLTTHNCQWGIC[Aib]-NH2
modifications: linker 2-9-14 via TATA
notes: scaffold TATA
B10: BCY19724 (peptide)
peptide: ACDLTTHNCQ[Trp(6-F)]GICA-NH2
modifications: linker 2-9-14 via TATA
notes: scaffold TATA
B11: BCY19706 (peptide)
peptide: ACNLQAPCMLTGK[aIle]CA-NH2
modifications: linker 2-8-15 via TATA; N-terminus assumed
SMILES: CC[C@@H](C)[C@@H]1NC(=O)[C@H](CCCCN)NC(=O)CNC(=O)[C@H]([C@@H](C)O)NC(=O)[C@H](CC(C)C)NC(=O)[C@H](CCSC)NC(=O)[C@@H]2CSCCC(=O)N3CN(CN(C3)C(=O)CCSC[C@@H](C(=O)N[C@@H](C)C(N)=O)NC1=O)C(=O)CCSC[C@H](NC(=O)[C@H](C)N)C(=O)N[C@@H](CC(N)=O)C(=O)N[C@@H](CC(C)C)C(=O)N[C@@H](CCC(N)=O)C(=O)N[C@@H](C)C(=O)N1CCC[C@H]1C(=O)N2
notes: scaffold TATA
B12: BCY19703 (peptide)
peptide: ACNLQAPCM[Nle]TGKVCA-NH2
modifications: linker 2-8-15 via TATA
notes: scaffold TATA
B13: BCY19701 (peptide)
peptide: ACNLQA[Pip]CMLTGKVCA-NH2
modifications: linker 2-8-15 via TATA; N-terminus assumed
SMILES: CSCC[C@@H]1NC(=O)[C@@H]2CSCCC(=O)N3CN(CN(C3)C(=O)CCSC[C@@H](C(=O)N[C@@H](C)C(N)=O)NC(=O)[C@H](C(C)C)NC(=O)[C@H](CCCCN)NC(=O)CNC(=O)[C@H]([C@@H](C)O)NC(=O)[C@H](CC(C)C)NC1=O)C(=O)CCSC[C@H](NC(=O)[C@H](C)N)C(=O)N[C@@H](CC(N)=O)C(=O)N[C@@H](CC(C)C)C(=O)N[C@@H](CCC(N)=O)C(=O)N[C@@H](C)C(=O)N1CCCC[C@H]1C(=O)N2
notes: scaffold TATA
B14: BCY19722 (peptide)
peptide: ACDLTTHNCQ[Trp(6-Me)]GICA-NH2
modifications: linker 2-9-14 via TATA; N-terminus assumed
SMILES: CC[C@H](C)[C@@H]1NC(=O)CNC(=O)[C@H](Cc2c[nH]c3cc(C)ccc23)NC(=O)[C@H](CCC(N)=O)NC(=O)[C@@H]2CSCCC(=O)N3CN(CN(C3)C(=O)CCSC[C@@H](C(=O)N[C@@H](C)C(N)=O)NC1=O)C(=O)CCSC[C@H](NC(=O)[C@H](C)N)C(=O)N[C@@H](CC(=O)O)C(=O)N[C@@H](CC(C)C)C(=O)N[C@@H]([C@@H](C)O)C(=O)N[C@@H]([C@@H](C)O)C(=O)N[C@@H](Cc1c[nH]cn1)C(=O)N[C@@H](CC(N)=O)C(=O)N2
notes: scaffold TATA
B15: BCY19704 (peptide)
peptide: ACNLQAPCM[Nva]TGKVCA-NH2
modifications: linker 2-8-15 via TATA; N-terminus assumed
SMILES: CCC[C@@H]1NC(=O)[C@H](CCSC)NC(=O)[C@@H]2CSCCC(=O)N3CN(CN(C3)C(=O)CCSC[C@@H](C(=O)N[C@@H](C)C(N)=O)NC(=O)[C@H](C(C)C)NC(=O)[C@H](CCCCN)NC(=O)CNC(=O)[C@H]([C@@H](C)O)NC1=O)C(=O)CCSC[C@H](NC(=O)[C@H](C)N)C(=O)N[C@@H](CC(N)=O)C(=O)N[C@@H](CC(C)C)C(=O)N[C@@H](CCC(N)=O)C(=O)N[C@@H](C)C(=O)N1CCC[C@H]1C(=O)N2
notes: scaffold TATA
B16: BCY19710 (peptide)
peptide: ACNLQA[Nva]CMLTGKVCA-NH2
modifications: linker 2-8-15 via TATA; N-terminus assumed
SMILES: CCC[C@@H]1NC(=O)[C@H](C)NC(=O)[C@H](CCC(N)=O)NC(=O)[C@H](CC(C)C)NC(=O)[C@H](CC(N)=O)NC(=O)[C@@H](NC(=O)[C@H](C)N)CSCCC(=O)N2CN3CN(C2)C(=O)CCSC[C@@H](C(=O)N[C@@H](C)C(N)=O)NC(=O)[C@H](C(C)C)NC(=O)[C@H](CCCCN)NC(=O)CNC(=O)[C@H]([C@@H](C)O)NC(=O)[C@H](CC(C)C)NC(=O)[C@H](CCSC)NC(=O)[C@H](CSCCC3=O)NC1=O
notes: scaffold TATA
B17: BCY19735 (peptide)
peptide: ACDLTTHNCQWG[aIle]CA-NH2
modifications: linker 2-9-14 via TATA
notes: scaffold TATA
B18: BCY19733 (peptide)
peptide: ACDLTTHNCQWG[Nva(3-Et)]CA-NH2
modifications: linker 2-9-14 via TATA; N-terminus assumed
SMILES: CCC(CC)[C@@H]1NC(=O)CNC(=O)[C@H](Cc2c[nH]c3ccccc23)NC(=O)[C@H](CCC(N)=O)NC(=O)[C@@H]2CSCCC(=O)N3CN(CN(C3)C(=O)CCSC[C@@H](C(=O)N[C@@H](C)C(N)=O)NC1=O)C(=O)CCSC[C@H](NC(=O)[C@H](C)N)C(=O)N[C@@H](CC(=O)O)C(=O)N[C@@H](CC(C)C)C(=O)N[C@@H]([C@@H](C)O)C(=O)N[C@@H]([C@@H](C)O)C(=O)N[C@@H](Cc1c[nH]cn1)C(=O)N[C@@H](CC(N)=O)C(=O)N2
notes: scaffold TATA
B19: BCY19725 (peptide)
peptide: ACDLTTHNCQ[Trp(5-F)]GICA-NH2
modifications: linker 2-9-14 via TATA
notes: scaffold TATA
B20: BCY14456 (peptide)
peptide: ACNLQKPCMKYPCA-NH2
modifications: linker 2-8-13 via TATA; also: scaffold TATA, TATB or TBMT
notes: scaffold TATA

Target: T1, Human NKp46 Fc tag (Acro Biosystems, NC1-H5257) (human, UniProt O76036 22-255)
T1 construct: bought; also called Fc-tagged human NKp46
T1 sequence (O76036 22-255 limits assumed): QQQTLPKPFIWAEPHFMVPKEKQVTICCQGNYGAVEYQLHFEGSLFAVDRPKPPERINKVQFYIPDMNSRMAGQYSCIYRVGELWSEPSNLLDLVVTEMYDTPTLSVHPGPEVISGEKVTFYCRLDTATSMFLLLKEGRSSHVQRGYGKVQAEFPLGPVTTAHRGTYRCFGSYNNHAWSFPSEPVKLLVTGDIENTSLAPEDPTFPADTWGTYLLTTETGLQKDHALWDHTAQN
Assay: SPR Method 1 and/or 2
Summary of the method: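 Fc-tagged human NKp46 captured on anti-human IgG surface (500–1000 RU); compounds run in PBS-P+ with 2% DMSO at 25 °C, 50 μL/min, 60 s association, 400 s dissociation. Double-referenced, DMSO-corrected; KD from steady-state 1:1 fit, kinetic constants from kinetic 1:1 fit where appropriate.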

Row | Kd [nM] | Binder
1 | 1050 | B1
2 | 3730 | B2
3 | 2270 | B3
4 | 374 | B4
5 | 3.5 | B5
6 | 2610 | B6
7 | 611 | B7
8 | 964 | B8
9 | 598 | B9
10 | 1390 | B10
11 | 1200 | B11
12 | 1690 | B12
13 | 4030 | B13
14 | 1460 | B14
15 | 1620 | B15
16 | 2360 | B16
17 | 460 | B17
18 | 354 | B18
19 | 457 | B19
20 | 703 | B20
